Assay results as given in paper PMC3737555, “Structural insights into the targeting of mRNA GU-rich elements by the three RRMs of CELF1”.

Tests used:
[1] = test system: CELF1 RRM23 (Xenopus); assay: ITC; conditions: ITC: 25 mM potassium phosphate, 100 mM NaCl, pH 7.0, 25 C, 12.5 uM protein, 125 uM RNA in syringe; NMR: same buffer, 298 K, ~200-250 uM protein
[2] = target: T1, CELF1 RRM123 (Xenopus, UniProt O57406 1-214+385-489, internal_change); assay: ITC; n=1.45; ITC: 25 mM potassium phosphate, 100 mM NaCl, pH 7.0, 25 C, 12.5 uM protein, 125 uM RNA in syringe; NMR: same buffer, 298 K, ~200-250 uM protein; conditions: protein: recombinant; tags: N-terminal His; single strand
T1 sequence (O57406 other isoform, or with tags, fused parts or gaps): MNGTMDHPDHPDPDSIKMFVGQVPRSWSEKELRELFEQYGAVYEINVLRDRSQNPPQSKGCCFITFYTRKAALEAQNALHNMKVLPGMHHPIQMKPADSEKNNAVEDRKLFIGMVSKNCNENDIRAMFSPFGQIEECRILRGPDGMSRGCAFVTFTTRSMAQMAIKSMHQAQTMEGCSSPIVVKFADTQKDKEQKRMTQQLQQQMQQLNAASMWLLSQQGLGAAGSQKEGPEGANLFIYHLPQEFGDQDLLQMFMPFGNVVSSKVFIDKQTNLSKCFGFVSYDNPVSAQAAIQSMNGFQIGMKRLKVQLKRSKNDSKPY

[3] = target: T1, CELF1 RRM123; assay: ITC; n=1.64; ITC: 25 mM potassium phosphate, 100 mM NaCl, pH 7.0, 25 C, 12.5 uM protein, 125 uM RNA in syringe; NMR: same buffer, 298 K, ~200-250 uM protein; conditions: protein: recombinant; tags: N-terminal His; single strand
[4] = target: T1, CELF1 RRM123; assay: NMR PRE; strongest PRE in RRM2; ITC: 25 mM potassium phosphate, 100 mM NaCl, pH 7.0, 25 C, 12.5 uM protein, 125 uM RNA in syringe; NMR: same buffer, 298 K, ~200-250 uM protein; conditions: protein: recombinant; tags: N-terminal His; label: MTSL on 5' 4-thiouridine; single strand
[5] = target: T1, CELF1 RRM123; assay: NMR PRE; strongest PRE in RRM3; ITC: 25 mM potassium phosphate, 100 mM NaCl, pH 7.0, 25 C, 12.5 uM protein, 125 uM RNA in syringe; NMR: same buffer, 298 K, ~200-250 uM protein; conditions: protein: recombinant; tags: N-terminal His; label: MTSL on 3' 4-thiouridine; single strand
[6] = target: CELF1 RRM1 (Xenopus, UniProt O57406 16-99); assay: NMR PRE; ITC: 25 mM potassium phosphate, 100 mM NaCl, pH 7.0, 25 C, 12.5 uM protein, 125 uM RNA in syringe; NMR: same buffer, 298 K, ~200-250 uM protein; conditions: protein: recombinant; tags: His; label: MTSL on 5' 4-thiouridine; single strand
Sequence of CELF1 RRM1 (O57406 16-99): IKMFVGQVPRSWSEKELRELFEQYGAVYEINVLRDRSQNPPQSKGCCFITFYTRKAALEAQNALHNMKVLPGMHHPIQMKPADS

[7] = target: T1, CELF1 RRM123; assay: ITC; n=0.85; ITC: 25 mM potassium phosphate, 100 mM NaCl, pH 7.0, 25 C, 12.5 uM protein, 125 uM RNA in syringe; NMR: same buffer, 298 K, ~200-250 uM protein; conditions: protein: recombinant; tags: N-terminal His; single strand
[8] = target: CELF1 full-length wild type (Xenopus, UniProt O57406 1-489); assay: NMR; extensive line broadening; ITC: 25 mM potassium phosphate, 100 mM NaCl, pH 7.0, 25 C, 12.5 uM protein, 125 uM RNA in syringe; NMR: same buffer, 298 K, ~200-250 uM protein; conditions: protein: recombinant, tags: N-terminal His
Sequence of CELF1 full-length wild type (O57406 whole entry): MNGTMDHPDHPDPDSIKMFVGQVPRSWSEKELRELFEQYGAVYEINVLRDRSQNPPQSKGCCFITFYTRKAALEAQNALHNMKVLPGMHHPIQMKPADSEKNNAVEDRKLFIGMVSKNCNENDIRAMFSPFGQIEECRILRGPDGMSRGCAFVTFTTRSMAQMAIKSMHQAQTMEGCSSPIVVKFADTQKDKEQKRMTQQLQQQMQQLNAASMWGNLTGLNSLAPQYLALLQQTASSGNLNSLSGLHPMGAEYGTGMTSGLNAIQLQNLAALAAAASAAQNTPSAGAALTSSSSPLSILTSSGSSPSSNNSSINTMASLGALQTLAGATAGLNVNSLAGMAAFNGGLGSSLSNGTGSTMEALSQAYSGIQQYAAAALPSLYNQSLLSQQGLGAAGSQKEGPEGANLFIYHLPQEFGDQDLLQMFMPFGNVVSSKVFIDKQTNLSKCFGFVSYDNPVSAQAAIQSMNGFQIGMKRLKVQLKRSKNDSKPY

[9] = target: T1, CELF1 RRM123; assay: ITC; n=0.83; ITC: 25 mM potassium phosphate, 100 mM NaCl, pH 7.0, 25 C, 12.5 uM protein, 125 uM RNA in syringe; NMR: same buffer, 298 K, ~200-250 uM protein; conditions: protein: recombinant; tags: N-terminal His; hairpin, 4 bp stem, single-stranded 5' and 3' tails
[10] = target: T1, CELF1 RRM123; assay: ITC; n=0.79; ITC: 25 mM potassium phosphate, 100 mM NaCl, pH 7.0, 25 C, 12.5 uM protein, 125 uM RNA in syringe; NMR: same buffer, 298 K, ~200-250 uM protein; conditions: protein: recombinant; tags: N-terminal His; single strand
[11] = target: T1, CELF1 RRM123; assay: ITC; n=1.19; text gives 1.50 +/- 0.28; ITC: 25 mM potassium phosphate, 100 mM NaCl, pH 7.0, 25 C, 12.5 uM protein, 125 uM RNA in syringe; NMR: same buffer, 298 K, ~200-250 uM protein; conditions: protein: recombinant; tags: N-terminal His; single strand
[12] = target: T1, CELF1 RRM123; assay: ITC; n=0.67; ITC: 25 mM potassium phosphate, 100 mM NaCl, pH 7.0, 25 C, 12.5 uM protein, 125 uM RNA in syringe; NMR: same buffer, 298 K, ~200-250 uM protein; conditions: protein: recombinant; tags: N-terminal His; single strand

**Q.** For RNA with UGU(U) site used with RRM23, which Kd [1] is on record?
**A.** Its Kd is 520 nM.

B1: EDEN11 (GRE) (ssRNA)
RNA: UGUUUGUUUGU
**Q.** B1 was tested. Which Kd [2] did it give?
**A.** The Kd was 2200 ± 300 nM.

B2: EDEN-4U (ssRNA)
RNA: UGUUUUUUGU
**Q.** How did the Kd [3] turn out when B2 was run?
**A.** The Kd was 2080 ± 400 nM.

B3: 5'-U* EDEN-2U/4U (ssRNA)
RNA: UUGUUUUGUUUUUUGU
modifications: additional 5'-terminal 4-thiouridine
**Q.** Does B3 bind [4]?
**A.** Result: binds

B4: 3'-U* EDEN-2U/4U (ssRNA)
RNA: UGUUUUGUUUUUUGUU
modifications: 3'-terminal 4-thiouridine (taken as an additional nucleotide; not explicit)
**Q.** Does B4 bind [5]?
**A.** Result: binds

B5: 5'-U*UGU (ssRNA)
RNA: UUGU
modifications: 5'-terminal 4-thiouridine
**Q.** Does B5 bind [6]?
**A.** Result: binds

B6: EDEN-2U/4U (ssRNA)
RNA: UGUUUUGUUUUUUGU
**Q.** How did the Kd [7] turn out when B6 was run?
**A.** Its Kd is 110 ± 20 nM.

**Q.** Does B6 bind ([8]; single strand)?
**A.** Result: binds

B7: EDEN-2U/HL (structured_RNA)
RNA: UGUUUUGUUCCCGAGGACGGGUUGU
**Q.** Which Kd [9] does the source give for B7 here?
**A.** Its Kd is 550 ± 80 nM.

**Q.** Does B7 bind ([8]; hairpin, 4 bp stem, single-stranded 5' and 3' tails)?
**A.** Result: binds

B8: EDEN19 (ssRNA)
RNA: UGUAUGUGUUGUUUUAUGU
**Q.** Which Kd [10] does the source give for B8 here?
**A.** The Kd was 330 ± 70 nM.

B9: EDEN-2U/1U (ssRNA)
RNA: UGUUUUGUUUGU
**Q.** B9 was tested. Which Kd [11] did it give?
**A.** Its Kd is 1490 ± 230 nM.

B10: EDEN-4U/2U (ssRNA)
RNA: UGUUUUUUGUUUUGU
**Q.** B10 was tested. Which Kd [12] did it give?
**A.** The Kd was 980 ± 120 nM.
